Results as given in the RNAGym collection of RNA variant scans (doi:10.1093/molbev/msab373).

B1: Azoarcus group I ribozyme (parent)
chain: GUGCCUUGCGCCGGGAAACCACGCAAGGGAUGGUGUCAAAUUCGGCGAAACCUAAGCGCCCGCCCGGGCGUAUGGCAACGCCGAGCCAAGCUUCGGCGCCUGCGCCGAUGAAGGUGUAGAGACUAGACGGCACCCACCUAAGGCAAACGCUAUGGUGAAGGCAUAGUCCAGGGAGUGGCGAAAGUCACACAAACCGG

Variants of: B1
Experiment: reverse-splicing fitness (ratio to wild type); higher = more active; in vitro selection; Mg2+ level not given
How it was run: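 An in vitro group I ribozyme library with randomized positions was T7-transcribed and gel-purified. In triplicate, 10 pmol RNA in EPPS pH 7.5 was reacted with 50 pmoles of a 30-nt RNA substrate for 1 h at 37 °C across several added MgCl2 levels (1–48 mM), then stopped with EDTA. Products were reverse transcribed from a substrate-complementary primer, PCR-amplified and sequenced (HiSeq 4000). Fitness is a variant's read proportion after selection over that before, normalised to wild type.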

Variant	reverse-splicing fitness
GUGCCUUGCGCCGGGAAACCACGCAAGGGAUGGUGUCAAAUUCGGCGAAACCUAAGCGCCCGCCCGGGCGUAUGGCAACGCGGAGCCAAGCUUCGGCGCCUGCGCCGAUGCAGGUGUAGUGACUAGACGGCACCCACCUAAGGCUAACGCUAUGGUGAAGGCAUAGUCAAGGGAGAGGCGAAAGUCACACAAACCGG [C82G A111C A120U A145U C169A U176A]	0.00261
GUGCCUUGCGCCGGGAAACCACGCAAGGGAUGGUGUCAAAUUCGGCGAAACCUAAGCGCCCGCCCGGGCGUAUGGCAACGCGGAGCCAAGCUUCGGCGCCUGCGCCGAUGCAGGUGUAGUGACUAGACGGCACCCACCUAAGGCUAACGCUAUGGUGAAGGCAUAGUCAAGGGAGCGGCGAAAGUCACACAAACCGG [C82G A111C A120U A145U C169A U176C]	0.00242
GUGCCUUGCGCCGGGAAACCACGCAAGGGAUGGUGUCAAAUUCGGCGAAACCUAAGCGCCCGCCCGGGCGUAUGGCAACGCGGAGCCAAGCUUCGGCGCCUGCGCCGAUGCAGGUGUAGUGACUAGACGGCACCCACCUAAGGCUAACGCUAUGGUGAAGGCAUAGUCAAGGGAGGGGCGAAAGUCACACAAACCGG [C82G A111C A120U A145U C169A U176G]	0.00195
GUGCCUUGCGCCGGGAAACCACGCAAGGGAUGGUGUCAAAUUCGGCGAAACCUAAGCGCCCGCCCGGGCGUAUGGCAACGCGGAGCCAAGCUUCGGCGCCUGCGCCGAUGCAGGUGUAGUGACUAGACGGCACCCACCUAAGGCUAACGCUAUGGUGAAGGCAUAGUCUAGGGAGGGGCGAAAGUCACACAAACCGG [C82G A111C A120U A145U C169U U176G]	0.00187
GUGCCUUGCGCCGGGAAACCACGCAAGGGAUGGUGUCAAAUUCGGCGAAACCUAAGCGCCCGCCCGGGCGUAUGGCAACGCGGAGCCAAGCUUCGGCGCCUGCGCCGAUGCAGGUGUAGUGACUAGACGGCACCCACCUAAGGCUAACGCUAUGGUGAAGGCAUAGUCUAGGGAGCGGCGAAAGUCACACAAACCGG [C82G A111C A120U A145U C169U U176C]	0.00318
GUGCCUUGCGCCGGGAAACCACGCAAGGGAUGGUGUCAAAUUCGGCGAAACCUAAGCGCCCGCCCGGGCGUAUGGCAACGCGGAGCCAAGCUUCGGCGCCUGCGCCGAUGCAGGUGUAGUGACUAGACGGCACCCACCUAAGGCUAACGCUAUGGUGAAGGCAUAGUCUAGGGAGAGGCGAAAGUCACACAAACCGG [C82G A111C A120U A145U C169U U176A]	0.00319
GUGCCUUGCGCCGGGAAACCACGCAAGGGAUGGUGUCAAAUUCGGCGAAACCUAAGCGCCCGCCCGGGCGUAUGGCAACGCGGAGCCAAGCUUCGGCGCCUGCGCCGAUGCAGGUGUAGUGACUAGACGGCACCCACCUAAGGCUAACGCUAUGGUGAAGGCAUAGUCCAGGGAGAGGCGAAAGUCACACAAACCGG [C82G A111C A120U A145U U176A]	0.0115
GUGCCUUGCGCCGGGAAACCACGCAAGGGAUGGUGUCAAAUUCGGCGAAACCUAAGCGCCCGCCCGGGCGUAUGGCAACGCGGAGCCAAGCUUCGGCGCCUGCGCCGAUGCAGGUGUAGUGACUAGACGGCACCCACCUAAGGCUAACGCUAUGGUGAAGGCAUAGUCCAGGGAGGGGCGAAAGUCACACAAACCGG [C82G A111C A120U A145U U176G]	0.00533
GUGCCUUGCGCCGGGAAACCACGCAAGGGAUGGUGUCAAAUUCGGCGAAACCUAAGCGCCCGCCCGGGCGUAUGGCAACGCGGAGCCAAGCUUCGGCGCCUGCGCCGAUGCAGGUGUAGUGACUAGACGGCACCCACCUAAGGCUAACGCUAUGGUGAAGGCAUAGUCCAGGGAGCGGCGAAAGUCACACAAACCGG [C82G A111C A120U A145U U176C]	0.0197
GUGCCUUGCGCCGGGAAACCACGCAAGGGAUGGUGUCAAAUUCGGCGAAACCUAAGCGCCCGCCCGGGCGUAUGGCAACGCGGAGCCAAGCUUCGGCGCCUGCGCCGAUGCAGGUGUAGUGACUAGACGGCACCCACCUAAGGCAAACGAUAUGGUGAAGGCAUAGUCGAGGGAGUGGCGAAAGUCACACAAACCGG [C82G A111C A120U C150A C169G]	0.0046
GUGCCUUGCGCCGGGAAACCACGCAAGGGAUGGUGUCAAAUUCGGCGAAACCUAAGCGCCCGCCCGGGCGUAUGGCAACGCGGAGCCAAGCUUCGGCGCCUGCGCCGAUGCAGGUGUAGUGACUAGACGGCACCCACCUAAGGCAAACGAUAUGGUGAAGGCAUAGUCAAGGGAGUGGCGAAAGUCACACAAACCGG [C82G A111C A120U C150A C169A]	0.00547
GUGCCUUGCGCCGGGAAACCACGCAAGGGAUGGUGUCAAAUUCGGCGAAACCUAAGCGCCCGCCCGGGCGUAUGGCAACGCGGAGCCAAGCUUCGGCGCCUGCGCCGAUGCAGGUGUAGUGACUAGACGGCACCCACCUAAGGCUAACGUUAUGGUGAAGGCAUAGUCGAGGGAGCGGCGAAAGUCACACAAACCGG [C82G A111C A120U A145U C150U C169G U176C]	0.00346
GUGCCUUGCGCCGGGAAACCACGCAAGGGAUGGUGUCAAAUUCGGCGAAACCUAAGCGCCCGCCCGGGCGUAUGGCAACGCGGAGCCAAGCUUCGGCGCCUGCGCCGAUGCAGGUGUAGUGACUAGACGGCACCCACCUAAGGCUAACGUUAUGGUGAAGGCAUAGUCGAGGGAGGGGCGAAAGUCACACAAACCGG [C82G A111C A120U A145U C150U C169G U176G]	0.00273
GUGCCUUGCGCCGGGAAACCACGCAAGGGAUGGUGUCAAAUUCGGCGAAACCUAAGCGCCCGCCCGGGCGUAUGGCAACGCGGAGCCAAGCUUCGGCGCCUGCGCCGAUGCAGGUGUAGUGACUAGACGGCACCCACCUAAGGCUAACGUUAUGGUGAAGGCAUAGUCUAGGGAGGGGCGAAAGUCACACAAACCGG [C82G A111C A120U A145U C150U C169U U176G]	0.00235
GUGCCUUGCGCCGGGAAACCACGCAAGGGAUGGUGUCAAAUUCGGCGAAACCUAAGCGCCCGCCCGGGCGUAUGGCAACGCGGAGCCAAGCUUCGGCGCCUGCGCCGAUGCAGGUGUAGUGACUAGACGGCACCCACCUAAGGCUAACGUUAUGGUGAAGGCAUAGUCUAGGGAGAGGCGAAAGUCACACAAACCGG [C82G A111C A120U A145U C150U C169U U176A]	0.0031
